Molecular target: binding sites on guinea-pig eosinophils (guinea-pig)
Test: radioligand binding, 0.1 nM 125I-RANTES on 4x10^5 guinea-pig eosinophils, no competitor

“recombinant human RANTES (from UniProt P13501 24-91) (ligand)” showed a BO of 14.4%.
